Results reported in patent US9260500B2, “Peptide and use thereof” (Takeda Pharmaceutical Company Limited, priority 2009, dated 2016).
Non-standard residues stand in square brackets, D forms with d. Lys(Me2) = CN(C)CCCC[C@H](N)C(=O)O; Hyp = O=C(O)[C@@H]1C[C@@H](O)CN1; 4Pal = N[C@@H](Cc1ccncc1)C(=O)O; Cha = N[C@@H](CC1CCCCC1)C(=O)O; NMeS = CN[C@@H](CO)C(=O)O; hSer = N[C@@H](CCO)C(=O)O; Iva = CC[C@](C)(N)C(=O)O; Aib = CC(C)(N)C(=O)O; βAla = NCCC(=O)O

Legend:
human Y2 receptor [1] = target: T1, human Y2 receptor (Homo sapiens, UniProt P49146); test: Receptor Binding Assay (RBA) for Human Y2, [125I]-PYY displacement on hY2R/CHO membrane fraction; conditions: IC50 of test compound/IC50 of PYY(3-36) (PYY(3-36) taken as 1)
T1 construct: expressed in transfected cells; membrane fraction
T1 sequence (P49146 1-381): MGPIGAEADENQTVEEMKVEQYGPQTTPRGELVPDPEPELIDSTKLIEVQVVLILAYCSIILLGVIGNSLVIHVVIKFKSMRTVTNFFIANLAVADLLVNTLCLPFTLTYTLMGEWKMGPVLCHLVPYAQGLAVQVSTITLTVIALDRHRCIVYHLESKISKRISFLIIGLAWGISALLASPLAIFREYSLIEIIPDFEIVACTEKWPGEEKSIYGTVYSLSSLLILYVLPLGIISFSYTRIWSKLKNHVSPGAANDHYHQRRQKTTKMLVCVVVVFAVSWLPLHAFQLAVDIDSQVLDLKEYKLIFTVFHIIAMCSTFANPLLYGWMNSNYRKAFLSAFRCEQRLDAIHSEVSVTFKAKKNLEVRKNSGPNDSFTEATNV
In short: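 hY2R stably expressed in CHO/dhfr− cells; membrane fraction prepared from cells disrupted in 10 mM NaHCO3, 5 mM EDTA buffer with protease inhibitors. Binding read as displacement of [125I]-PYY.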

human Y2 receptor [2] = target: T1, human Y2 receptor; test: Human Y2 Receptor G Protein Binding Assay (GBA), [35S]GTPγS; type: biochemical; conditions: EC50 of test compound/EC50 of PYY(3-36) (PYY3-36 taken as 1), hY2R/CHO membrane fraction
In short: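 Agonism measured as [35S]GTPγS binding, read by GF/C filtration and scintillation counting after 120 min at room temperature, using human Y2 membranes at 1 μg protein/mL in pH 7.4 Tris/MgCl2/NaCl/GDP buffer. Compound serially diluted 100 μM–1 nM; EC50 normalized to PYY(3-36) (ratio = compound/PYY).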

Row | Substance | RBA IC50 Ratio (human Y2 receptor [1]) | GBA EC50 Ratio (human Y2 receptor [2])
1 | Ac-[Glu23, D-Pro24, Pya(4)26, Cha27,36, Aib28,31, Lys30]-PYY(22-36) (Ac-AE[dP]R[4Pal][Cha][Aib]NK[Aib]TRQR[Cha]-NH2; SMILES CC(=O)N[C@@H](C)C(=O)N[C@@H](CCC(=O)O)C(=O)N1CCC[C@@H]1C(=O)N[C@@H](CCCNC(=N)N)C(=O)N[C@@H](Cc1ccncc1)C(=O)N[C@@H](CC1CCCCC1)C(=O)NC(C)(C)C(=O)N[C@@H](CC(N)=O)C(=O)N[C@@H](CCCCN)C(=O)NC(C)(C)C(=O)N[C@H](C(=O)N[C@@H](CCCNC(=N)N)C(=O)N[C@@H](CCC(N)=O)C(=O)N[C@@H](CCCNC(=N)N)C(=O)N[C@@H](CC1CCCCC1)C(N)=O)[C@@H](C)O) [compound No. 220] | 5.3 | 3.5
2 | Ac-[Glu23, D-Pro24, Pya(4)26, Cha27,36, Aib28,31, Lys30]-PYY(23-36) (Ac-E[dP]R[4Pal][Cha][Aib]NK[Aib]TRQR[Cha]-NH2; SMILES CC(=O)N[C@@H](CCC(=O)O)C(=O)N1CCC[C@@H]1C(=O)N[C@@H](CCCNC(=N)N)C(=O)N[C@@H](Cc1ccncc1)C(=O)N[C@@H](CC1CCCCC1)C(=O)NC(C)(C)C(=O)N[C@@H](CC(N)=O)C(=O)N[C@@H](CCCCN)C(=O)NC(C)(C)C(=O)N[C@H](C(=O)N[C@@H](CCCNC(=N)N)C(=O)N[C@@H](CCC(N)=O)C(=O)N[C@@H](CCCNC(=N)N)C(=O)N[C@@H](CC1CCCCC1)C(N)=O)[C@@H](C)O) [compound No. 209] | 2.7 | 1.9
3 | Ac-[Glu23, βAla24, Pya(4)26, Cha27,36, Aib28,31, Lys30]-PYY(23-36) (Ac-E[βAla]R[4Pal][Cha][Aib]NK[Aib]TRQR[Cha]-NH2; SMILES CC(=O)N[C@@H](CCC(=O)O)C(=O)NCCC(=O)N[C@@H](CCCNC(=N)N)C(=O)N[C@@H](Cc1ccncc1)C(=O)N[C@@H](CC1CCCCC1)C(=O)NC(C)(C)C(=O)N[C@@H](CC(N)=O)C(=O)N[C@@H](CCCCN)C(=O)NC(C)(C)C(=O)N[C@H](C(=O)N[C@@H](CCCNC(=N)N)C(=O)N[C@@H](CCC(N)=O)C(=O)N[C@@H](CCCNC(=N)N)C(=O)N[C@@H](CC1CCCCC1)C(N)=O)[C@@H](C)O) [compound No. 223] | 7.4 | 3.9
4 | Ac-[Hse23, D-Pro24, Cha27,28,36, Aib31]-PYY(23-36) (Ac-[hSer][dP]RH[Cha][Cha]NL[Aib]TRQR[Cha]-NH2; SMILES CC(=O)N[C@@H](CCO)C(=O)N1CCC[C@@H]1C(=O)N[C@@H](CCCNC(=N)N)C(=O)N[C@@H](Cc1c[nH]cn1)C(=O)N[C@@H](CC1CCCCC1)C(=O)N[C@@H](CC1CCCCC1)C(=O)N[C@@H](CC(N)=O)C(=O)N[C@@H](CC(C)C)C(=O)NC(C)(C)C(=O)N[C@H](C(=O)N[C@@H](CCCNC(=N)N)C(=O)N[C@@H](CCC(N)=O)C(=O)N[C@@H](CCCNC(=N)N)C(=O)N[C@@H](CC1CCCCC1)C(N)=O)[C@@H](C)O) [compound No. 157] | 2.5 | 1.6
5 | Ac-[Hyp23, D-Pro24, Cha27,28,36, Aib31]-PYY(23-36) (Ac-[Hyp][dP]RH[Cha][Cha]NL[Aib]TRQR[Cha]-NH2; SMILES CC(=O)N1C[C@H](O)C[C@H]1C(=O)N1CCC[C@@H]1C(=O)N[C@@H](CCCNC(=N)N)C(=O)N[C@@H](Cc1c[nH]cn1)C(=O)N[C@@H](CC1CCCCC1)C(=O)N[C@@H](CC1CCCCC1)C(=O)N[C@@H](CC(N)=O)C(=O)N[C@@H](CC(C)C)C(=O)NC(C)(C)C(=O)N[C@H](C(=O)N[C@@H](CCCNC(=N)N)C(=O)N[C@@H](CCC(N)=O)C(=O)N[C@@H](CCCNC(=N)N)C(=O)N[C@@H](CC1CCCCC1)C(N)=O)[C@@H](C)O) [compound No. 126] | 7.3 | 5.0
6 | Ac-[Iva23, D-Pro24, Cha27,28,36, Aib31]-PYY(23-36) (Ac-[Iva][dP]RH[Cha][Cha]NL[Aib]TRQR[Cha]-NH2; SMILES CC[C@](C)(NC(C)=O)C(=O)N1CCC[C@@H]1C(=O)N[C@@H](CCCNC(=N)N)C(=O)N[C@@H](Cc1c[nH]cn1)C(=O)N[C@@H](CC1CCCCC1)C(=O)N[C@@H](CC1CCCCC1)C(=O)N[C@@H](CC(N)=O)C(=O)N[C@@H](CC(C)C)C(=O)NC(C)(C)C(=O)N[C@H](C(=O)N[C@@H](CCCNC(=N)N)C(=O)N[C@@H](CCC(N)=O)C(=O)N[C@@H](CCCNC(=N)N)C(=O)N[C@@H](CC1CCCCC1)C(N)=O)[C@@H](C)O) [compound No. 178] | 13 | 17
7 | Ac-[Leu22, D-Pro24, Pya(4)26, Cha27,36, Aib28,31, Lys30]-PYY(22-36) (Ac-LS[dP]R[4Pal][Cha][Aib]NK[Aib]TRQR[Cha]-NH2; SMILES CC(=O)N[C@@H](CC(C)C)C(=O)N[C@@H](CO)C(=O)N1CCC[C@@H]1C(=O)N[C@@H](CCCNC(=N)N)C(=O)N[C@@H](Cc1ccncc1)C(=O)N[C@@H](CC1CCCCC1)C(=O)NC(C)(C)C(=O)N[C@@H](CC(N)=O)C(=O)N[C@@H](CCCCN)C(=O)NC(C)(C)C(=O)N[C@H](C(=O)N[C@@H](CCCNC(=N)N)C(=O)N[C@@H](CCC(N)=O)C(=O)N[C@@H](CCCNC(=N)N)C(=O)N[C@@H](CC1CCCCC1)C(N)=O)[C@@H](C)O) [compound No. 274] | 1.2 | 1.0
8 | Ac-[Lys22,30, D-Pro24, Pya(4)26, Cha27,36, Aib28,31]-PYY(22-36) (Ac-KS[dP]R[4Pal][Cha][Aib]NK[Aib]TRQR[Cha]-NH2; SMILES CC(=O)N[C@@H](CCCCN)C(=O)N[C@@H](CO)C(=O)N1CCC[C@@H]1C(=O)N[C@@H](CCCNC(=N)N)C(=O)N[C@@H](Cc1ccncc1)C(=O)N[C@@H](CC1CCCCC1)C(=O)NC(C)(C)C(=O)N[C@@H](CC(N)=O)C(=O)N[C@@H](CCCCN)C(=O)NC(C)(C)C(=O)N[C@H](C(=O)N[C@@H](CCCNC(=N)N)C(=O)N[C@@H](CCC(N)=O)C(=O)N[C@@H](CCCNC(=N)N)C(=O)N[C@@H](CC1CCCCC1)C(N)=O)[C@@H](C)O) [compound No. 272] | 1.1 | 1.0
9 | Ac-[Lys(Me2)23, D-Pro24, Cha27,28,36, Aib31]-PYY(23-36) (Ac-[Lys(Me2)][dP]RH[Cha][Cha]NL[Aib]TRQR[Cha]-NH2; SMILES CC(=O)N[C@@H](CCCCN(C)C)C(=O)N1CCC[C@@H]1C(=O)N[C@@H](CCCNC(=N)N)C(=O)N[C@@H](Cc1c[nH]cn1)C(=O)N[C@@H](CC1CCCCC1)C(=O)N[C@@H](CC1CCCCC1)C(=O)N[C@@H](CC(N)=O)C(=O)N[C@@H](CC(C)C)C(=O)NC(C)(C)C(=O)N[C@H](C(=O)N[C@@H](CCCNC(=N)N)C(=O)N[C@@H](CCC(N)=O)C(=O)N[C@@H](CCCNC(=N)N)C(=O)N[C@@H](CC1CCCCC1)C(N)=O)[C@@H](C)O) [compound No. 160] | 0.92 | 1.3
10 | Ac-[MeSer23, D-Pro24, Cha27,28,36, Aib31]-PYY(22-36) (Ac-A[NMeS][dP]RH[Cha][Cha]NL[Aib]TRQR[Cha]-NH2; SMILES CC(=O)N[C@@H](C)C(=O)N(C)[C@@H](CO)C(=O)N1CCC[C@@H]1C(=O)N[C@@H](CCCNC(=N)N)C(=O)N[C@@H](Cc1c[nH]cn1)C(=O)N[C@@H](CC1CCCCC1)C(=O)N[C@@H](CC1CCCCC1)C(=O)N[C@@H](CC(N)=O)C(=O)N[C@@H](CC(C)C)C(=O)NC(C)(C)C(=O)N[C@H](C(=O)N[C@@H](CCCNC(=N)N)C(=O)N[C@@H](CCC(N)=O)C(=O)N[C@@H](CCCNC(=N)N)C(=O)N[C@@H](CC1CCCCC1)C(N)=O)[C@@H](C)O) [compound No. 129] | 12 | 7.8
